From PMC6637871, “Structural and functional insights into the modulation of the activity of a flax cytokinin oxidase by flax rust effector AvrL567‐A” (Molecular Plant Pathology, 2018) come the findings set out here.

Data set [1] addresses LuCKX1.1 protein (residues 44-534), purified (flax (Linum usitatissimum)).
Substrate in data set [2]: CC(C)=CCNc1ncnc2nc[nH]c12
The data set is described as follows: purified protein. The class given is biochemical, Linum usitatissimum. The note with it: 0.5 mM DCPIP as electron acceptor, 1.6 µM LuCKX1.1, McIlvaine buffer pH 7.5, no AvrL567-A.

Substrate in data set [3]: C/C(=C\CNc1ncnc2[nH]cnc12)CO
Put plainly: purified protein. The note with it: 0.5 mM DCPIP as electron acceptor, 1.6 µM LuCKX1.1, McIlvaine buffer pH 7.5, no AvrL567-A.

B1: AvrL567-A protein (residues 24-150), purified (natural protein)
chain: MEHVPAELTRVSEGYTRFYRSPTASVILSGLVKVKWDNEQMTMPLFKWIGGEQAEELHFCVHIAHSSGPKLNRARSLGTVNSNMDQHWAQAQRNSGATRRTIEGFHLFENDIPNFPDYIKIKLVPKT
Regarding B1, in data set [1], the turnover rate (Kcat) of LuCKX1.1 towards 2iP in the DCPIP kinetic assay, with 1.6 uM AvrL567-A against without it stood at 50% and the turnover rate (Kcat) of LuCKX1.1 towards tZ in the DCPIP kinetic assay, with 1.6 uM AvrL567-A against without it turned out to be 130%.

B2: LuCKX1.1 (Linum usitatissimum) (protein)
chain: LQGSIDYSTLAADFTGKDFGGVYSSNPLALIRPSGADDVARVLKSACRSSNLTVAARGNGHSINGQAMADGGIVLDMRSTEGNHFKILRINGGDHTAYADVSGGALWEDILMRCVSEYGLAPRSWTDYLRLTVGGTLSNAGVSGQAFRYGPQSSNVTELDVVTGKGDFLTCSPTHNSDLFFGALGGLGQFGVITRARIPLEPAPDMVRWIRMVYAEFEDFSRDAEWLVTQPEKESFDYVEGFAFVNSDSPADGWPSVPLYPNHMMEPTTPIHSGHQLLYCLELALHFNHSNSSSTVDSVVKRLIGGLRYMKGFKYEVDLSYVEFVMRVKRVEEDARAHGMWDAPHPWLNLFVSKADIAEFDRLIFKGLLHDGVGGPMLVYPLLRSKWDSRSSVVLPEGEDEIFYIVALLRSNPPYPKGPSVDKLVSQNDKIIQSCIQHGLGFKLYLPHYQSQHDWRRHFGDQWSKFVQLKLAFDPMAVLAPGQKIFTRTTK
notes: crystal model residues 44-532, two molecules per asymmetric unit; FAD covalently linked to His104
With B2, in data set [2], the Km turned out to be 44 µM and the kcat was 5.4 s⁻¹. In data set [3], the Km came to 64 µM and the kcat is 0.69 s⁻¹.
